This passage reports FRET assay of subunit exchange of FtsZ protofilaments results from paper PMC5473857.

The target in this experiment is FtsZ-F268C labeled with fluorescein 5-maleimide (donor) or tetramethylrhodamine 5-maleimide (acceptor) (E. coli) (UniProt P0A9A6).

B1: FtsA-R286W (FtsA*) from E. coli (natural protein)
chain: MIKATDRKLVVGLEIGTAKVAALVGEVLPDGMVNIIGVGSCPSRGMDKGGVNDLESVVKCVQRAIDQAELMADCQISSVYLALSGKHISCQNEIGMVPISEEEVTQEDVENVVHTAKSVRVRDEHRVLHVIPQEYAIDYQEGIKNPVGLSGVRMQAKVHLITCHNDMAKNIVKAVERCGLKVDQLIFAGLASSYSVLTEDERELGVCVVDIGGGTMDIAVYTGGALRHTKVIPYAGNVVTSDIAYAFGTPPSDAEAIKVRHGCALGSIVGKDESVEVPSVGGRPPWSLQRQTLAEVIEPRYTELLNLVNEEILQLQEKLRQQGVKHHLAAGIVLTGGAAQIEGLAACAQRVFHTQVRIGAPLNITGLTDYAQEPYYSTAVGLLHYGKESHLNGEAEVEKRVTASVGSWIKRLNSWLRKEF
B1 displayed an FRET assay of subunit exchange of FtsZ protofilaments at steady state with FtsA*, pH 6.5: reaction time τ (13.1 s for FtsZ alone) of 38 s.
